Numbering of substitutions follows the chain as printed.
Assays:
[1] = tested on: Recombinant Human CYP19A1 Allozymes; assay: CYP19A1 enzyme activity of recombinant allozymes (3H2O release from [1β3H]androst-4-ene-3,17-dione, COS-1 microsomes); type: biochemical; conditions: 20 nM androstenedione substrate, corrected for transfection efficiency, 6 independent transfections
[2] = tested on: Recombinant Human CYP19A1 Allozymes; assay: Substrate kinetics: apparent Km of recombinant CYP19A1 allozymes with androstenedione; type: biochemical; conditions: androstenedione as substrate; COS-1 microsomes

B1: Cys264: "a CYP19A1 polypeptide (Arg264Cys) having a cysteine at amino acid residue 264" (protein, UniProt P11511 1-503, looked up, variant R264C)
Aromatase: MVLEMLNPIHYNITSIVPEAMPAATMPVLLLTGLFLLVWNYEGTSSIPGPGYCMGIGPLISHGRFLWMGIGSACNYYNRVYGEFMRVWISGEETLIISKSSSMFHIMKHNHYSSRFGSKLGLQCIGMHEKGIIFNNNPELWKTTRPFFMKALSGPGLVRMVTVCAESLKTHLDRLEEVTNESGYVDVLTLLRRVMLDTSNTLFLRIPLDESAIVVKIQGYFDAWQALLIKPDIFFKISWLYKKYEKSVKDLKDAIEVLIAEKRCRISTEEKLEECMDFATELILAEKRGDLTRENVNQCILEMLIAAPDTMSVSLFFMLFLIAKHPNVEEAIIKEIQTVIGERDIKIDDIQKLKVMENFIYESMRYQPVVDLVMRKALEDDVIDGYPVKKGTNIILNIGRMHRLEFFPKPNEFTLENFAKNVPYRYFQPFGFGPRGCAGKYIAMVMMKAILVTLLRRFHVKTLQGQCVESIQKIHDLSLHPDETKNMLEMIFTPRNSDRCLEH
% WT activity [1]: 72%

B2: Thr364: "a CYP19A1 polypeptide having a threonine at amino acid residue 364. This polypeptide (Met(364)Thr) would be considered an allozyme" (protein, UniProt P11511 1-503, looked up, variant M364T)
Aromatase: B1 Aromatase with C264R, M364T
Apparent Km [2]: elevated
